From paper PMC12591191 (2025)
Where no end group is shown, it is not given here. The star is where a group is joined. Biotin = O=C1N[C@H]2[C@H](CS[C@H]2CCCCC(=O)*)N1; Myristoyl = CCCCCCCCCCCCCC(=O)*

Tests used:
SIRT6 R65A [1] = biological target: T1, SIRT6 R65A (human, UniProt Q8N6T7 1-355, R65A); test: BLI
SIRT6 G60A = SIRT6 G60A (Homo sapiens); test: BLI
SIRT6 H133Y [2] = biological target: T2, SIRT6 H133Y (human, UniProt Q8N6T7 1-355, H133Y); test: BLI
SIRT6 S56Y [3] = biological target: T3, SIRT6 S56Y (human, UniProt Q8N6T7 1-355, S56Y); test: BLI
SIRT6 R65A [4] = biological target: T1, SIRT6 R65A; test: BLI; Mg2+
SIRT6 H133Y [5] = biological target: T2, SIRT6 H133Y; test: BLI; Mg2+
SIRT6 S56Y [6] = biological target: T3, SIRT6 S56Y; test: BLI; Mg2+

T3 sequence (Q8N6T7 whole entry S56Y): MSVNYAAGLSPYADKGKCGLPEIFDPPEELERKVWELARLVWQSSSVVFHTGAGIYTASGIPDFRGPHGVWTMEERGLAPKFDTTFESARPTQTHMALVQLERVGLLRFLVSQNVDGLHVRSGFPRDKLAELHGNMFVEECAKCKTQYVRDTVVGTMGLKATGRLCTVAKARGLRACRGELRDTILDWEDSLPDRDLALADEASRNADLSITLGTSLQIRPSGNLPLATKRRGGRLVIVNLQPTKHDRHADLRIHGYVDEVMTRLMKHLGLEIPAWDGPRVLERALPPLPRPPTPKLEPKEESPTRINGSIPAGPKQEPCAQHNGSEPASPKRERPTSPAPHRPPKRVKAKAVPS
T2 sequence (Q8N6T7 whole entry H133Y): as the sequence (Q8N6T7 whole entry S56Y) above, with Y56S, H133Y counted along it
T1 sequence (Q8N6T7 whole entry R65A): as the sequence (Q8N6T7 whole entry S56Y) above, with Y56S, R65A counted along it
Sequence of SIRT6 G60A (Homo sapiens) (chain, as listed by the source G60A): as the sequence (Q8N6T7 whole entry S56Y) above, with Y56S, G60A counted along it

How did the Kd (SIRT6 R65A [1]) turn out when Biotin-KQTARK(Myristoyl)STGGKARRRRR [B-H3K9^Myr-5R (biotin-KQTARK^MyrSTGGKARRRRR)] was run?
Its Kd is 2000 nM.

And the Kd (SIRT6 G60A)?
Its Kd is 1300 nM.

What about the Kd (SIRT6 H133Y [2]) of the same binder?
Its Kd is 3200 nM.

What about the Kd (SIRT6 S56Y [3]) of the same binder?
Its Kd is 1600 nM.

And the Kd (SIRT6 R65A [4])?
Its Kd is 1800 nM.

And the Kd (SIRT6 H133Y [5])?
Its Kd is 680 nM.

What about the Kd (SIRT6 S56Y [6]) of the same binder?
The Kd was 610 nM.
